Test results as given in PMC12086574 (Molecular Biology of the Cell, 2025).

Target: the molecule itself
Test: SEC

B1: His6-SEPT7G (domain or fragment)
chain: GFEFTLMVVGESGLGKSTLINSLFLTDLYSPEYPGPSHRIKKTVQVEQSKVLIKEGGVQLLLTIVDTPGFGDAVDNSNCWQPVIDYIDSKFEDYLNAESRVNRRQMPDNRVQCCLYFIAPSGHGLKPLDIEFMKRLHEKVNIIPLIAKADTLTPEECQQFKKQIMKEIQEHKIKIYEFPETDDEEENKLVKKIKDRLPLAVVGSNTIIEVNGKRVRGRQYPWGVAEVENGEHCDFTILRNMLIRTHMQDLKDVTNNVHYENYRSRKLAAVT
In the case of B1, the “stoichiometry N” value is reported as 2.
